From the supplement of paper PMC12783771 come the findings set out here.

± gives the standard deviation of the averaged measurements.

B1: library; numbered along this chain (parent)
chain: MNIQIGELAKRTACPVVTIRFYEQEGLLPPPGRSRGNFRLYGEEHVERLQFIRHCRSLDMPLSDVRTLLSYRKRPDQDCGEVNMLLDEHIRQVESRIGALLELKHHLVELREACSGARPAQSCGILQGLSDCVCDTRGTTAHPSD

The variants in data set [1] derive from B1. The data set is described as follows: sfGFP reporter fluorescence (15 h) (µM FITC); higher = higher leak. As to conditions: library round: Round 0; ligand: none. The method, then:
(§1)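 Cell-free (BL21 Star DE3 extract, PANOx-SP) biosensing: 1 µL Echo-assembled reactions with linear PbrR variant templates (5 nM) and pPbrR-sfGFP reporter, with 1 µM Pb (lead chloride), 30 µM Zn (zinc acetate) or no ligand; endpoint sfGFP fluorescence after 15 h at 30 °C, calibrated as µM FITC. Round 0 library (alanine scan, site saturation, combinatorial) of PbrR from Cupriavidus metallidurans; 2 biological replicates.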

The variants in data set [2] derive from B1. The data set is described as follows: sfGFP reporter fluorescence (15 h) (µM FITC); higher = stronger transcriptional activation. As to conditions: library round: Round 0. As for the experimental part: as §1

MNIQIGELAKRAACPVVTIRFYEQEGLLPPPGRSRGNFRLYGEEHVERLQFIRHCRSLDMPLSDVRTLLSYRKRPDQDCGEVNMLLDEHIRQVESRIGALLELKHHLVELREACSGARPAQSCGILQGLSDCVCDTRGTTAHPSD [T12A]: the sfGFP reporter fluorescence in data set [1] stood at 0.0564 ± 0.0026; in data set [2] (ligand: 1 µM Pb) it was 0.0733 ± 0.0015; in data set [2] (ligand: 30 µM Zn), 0.611 ± 0.019.

In the case of MNIQIGEAAKRTACPVVTIRFYEQEGLLPPPGRSRGNFRLYGEEHVERLQFIRHCRSLDMPLSDVRTLLSYRKRPDQDCGEVNMLLDEHIRQVESRIGALLELKHHLVELREACSGARPAQSCGILQGLSDCVCDTRGTTAHPSD [L8A], the sfGFP reporter fluorescence in data set [1] turned out to be 0.0575 ± 0.0021; in data set [2] (ligand: 1 µM Pb), 0.0667 ± 0.0042; in data set [2] (ligand: 30 µM Zn), 0.313 ± 0.038.

Consider MNIQIGELAKRTAAPVVTIRFYEQEGLLPPPGRSRGNFRLYGEEHVERLQFIRHCRSLDMPLSDVRTLLSYRKRPDQDCGEVNMLLDEHIRQVESRIGALLELKHHLVELREACSGARPAQSCGILQGLSDCVCDTRGTTAHPSD [C14A], for which the sfGFP reporter fluorescence was 0.0687 ± 0.0018 in data set [1], 0.0726 ± 0.0015 in data set [2] (ligand: 1 µM Pb) and 0.317 ± 0.01 in data set [2] (ligand: 30 µM Zn).

In the case of MNIQIGELAARTACPVVTIRFYEQEGLLPPPGRSRGNFRLYGEEHVERLQFIRHCRSLDMPLSDVRTLLSYRKRPDQDCGEVNMLLDEHIRQVESRIGALLELKHHLVELREACSGARPAQSCGILQGLSDCVCDTRGTTAHPSD [K10A], the sfGFP reporter fluorescence in data set [1] turned out to be 0.05644 ± 0.00052; in data set [2] (ligand: 1 µM Pb), 0.0687 ± 0.0023; in data set [2] (ligand: 30 µM Zn), 0.567 ± 0.026.

On to MNIQIGELAKATACPVVTIRFYEQEGLLPPPGRSRGNFRLYGEEHVERLQFIRHCRSLDMPLSDVRTLLSYRKRPDQDCGEVNMLLDEHIRQVESRIGALLELKHHLVELREACSGARPAQSCGILQGLSDCVCDTRGTTAHPSD [R11A], for which the sfGFP reporter fluorescence in data set [1] stood at 0.0548 ± 0.0023; in data set [2] (ligand: 1 µM Pb), 0.0709 ± 0.0013; in data set [2] (ligand: 30 µM Zn), 0.565 ± 0.025.

Regarding MNIQIGWLAKRTACPVVTIRFYEQEGLLPPPGRSRGNFRLYGEEHVERLQFIRHCRSLDMPLSDVRTLLSYRKRPDQDCGEVNMLLDEHIRQVESRIGALLELKHHLVELREACSGARPAQSCGILQGLSDCVCDTRGTTAHPSD [E7W], the values for the sfGFP reporter fluorescence in data set [1], in data set [2] (ligand: 1 µM Pb) and in data set [2] (ligand: 30 µM Zn) were 0.0608 ± 0.0015, 0.06359 ± 0.00026 and 0.19 ± 0.0023, respectively.

Consider MNIQIGYLAKRTACPVVTIRFYEQEGLLPPPGRSRGNFRLYGEEHVERLQFIRHCRSLDMPLSDVRTLLSYRKRPDQDCGEVNMLLDEHIRQVESRIGALLELKHHLVELREACSGARPAQSCGILQGLSDCVCDTRGTTAHPSD [E7Y], for which the sfGFP reporter fluorescence in data set [1] amounted to 0.06249 ± 0.00026; in data set [2] (ligand: 1 µM Pb), 0.06542 ± 0.00026; in data set [2] (ligand: 30 µM Zn), 0.2223 ± 0.00026.

Regarding MNIQIGELAKRTACGVVTIRFYEQEGLLPPPGRSRGNFRLYGEEHVERLQFIRHCRSLDMPLSDVRTLLSYRKRPDQDCGEVNMLLDEHIRQVESRIGALLELKHHLVELREACSGARPAQSCGILQGLSDCVCDTRGTTAHPSD [P15G], the sfGFP reporter fluorescence was determined as 0.0643 ± 0.0018 in data set [1], 0.085 ± 0.0047 in data set [2] (ligand: 1 µM Pb) and 0.447 ± 0.028 in data set [2] (ligand: 30 µM Zn).

With MNIQIGELAKRTACFVVTIRFYEQEGLLPPPGRSRGNFRLYGEEHVERLQFIRHCRSLDMPLSDVRTLLSYRKRPDQDCGEVNMLLDEHIRQVESRIGALLELKHHLVELREACSGARPAQSCGILQGLSDCVCDTRGTTAHPSD [P15F], the sfGFP reporter fluorescence in data set [1] was 0.0662 ± 0.0018; in data set [2] (ligand: 1 µM Pb), 0.0702 ± 0.0049; in data set [2] (ligand: 30 µM Zn) it was 0.256 ± 0.013.

For the variant MNIQIGELAKRTACAVVTIRFYEQEGLLPPPGRSRGNFRLYGEEHVERLQFIRHCRSLDMPLSDVRTLLSYRKRPDQDCGEVNMLLDEHIRQVESRIGALLELKHHLVELREACSGARPAQSCGILQGLSDCVCDTRGTTAHPSD [P15A], the sfGFP reporter fluorescence in data set [1] was found to be 0.0674 ± 0.0042; in data set [2] (ligand: 1 µM Pb), 0.0953 ± 0.0088; in data set [2] (ligand: 30 µM Zn), 0.691 ± 0.02.

Consider MNIQIGELAKRTACHVVTIRFYEQEGLLPPPGRSRGNFRLYGEEHVERLQFIRHCRSLDMPLSDVRTLLSYRKRPDQDCGEVNMLLDEHIRQVESRIGALLELKHHLVELREACSGARPAQSCGILQGLSDCVCDTRGTTAHPSD [P15H], for which the figures for the sfGFP reporter fluorescence in data set [1], in data set [2] (ligand: 1 µM Pb) and in data set [2] (ligand: 30 µM Zn) were 0.0667 ± 0.001, 0.092 ± 0.0052 and 0.706 ± 0.044, respectively.

Consider MNIQIGELAKRTACCVVTIRFYEQEGLLPPPGRSRGNFRLYGEEHVERLQFIRHCRSLDMPLSDVRTLLSYRKRPDQDCGEVNMLLDEHIRQVESRIGALLELKHHLVELREACSGARPAQSCGILQGLSDCVCDTRGTTAHPSD [P15C], for which the sfGFP reporter fluorescence in data set [1] came to 0.0656 ± 0.0052; in data set [2] (ligand: 1 µM Pb), 0.0826 ± 0.0018; in data set [2] (ligand: 30 µM Zn), 0.5684 ± 0.001.

In the case of MNIQIGELAKRTACEVVTIRFYEQEGLLPPPGRSRGNFRLYGEEHVERLQFIRHCRSLDMPLSDVRTLLSYRKRPDQDCGEVNMLLDEHIRQVESRIGALLELKHHLVELREACSGARPAQSCGILQGLSDCVCDTRGTTAHPSD [P15E], the sfGFP reporter fluorescence in data set [1] was 0.0718 ± 0.001; in data set [2] (ligand: 1 µM Pb), 0.088 ± 0.0021; in data set [2] (ligand: 30 µM Zn), 0.4297 ± 0.0023.

Turning to MNIQIGELAKRTACDVVTIRFYEQEGLLPPPGRSRGNFRLYGEEHVERLQFIRHCRSLDMPLSDVRTLLSYRKRPDQDCGEVNMLLDEHIRQVESRIGALLELKHHLVELREACSGARPAQSCGILQGLSDCVCDTRGTTAHPSD [P15D], the sfGFP reporter fluorescence in data set [1] amounted to 0.066 ± 0.0057; in data set [2] (ligand: 1 µM Pb), 0.0689 ± 0.0021; in data set [2] (ligand: 30 µM Zn), 0.286 ± 0.008.
